The results in this text go back to patent US5756291.

Where two headings read alike, the source gives them in different places.

One data set has as its target kallikrein (UniProt P03952+P03952). As to the kind of experiment: filter. The settings on record: ~1 uM protein.
The target in data set [1] is thrombin (alpha, Factor IIa) (Homo sapiens) (UniProt P00734+P00734). In words: filter.

Chain of kallikrein (P03952 20-390, chain 1 of 2): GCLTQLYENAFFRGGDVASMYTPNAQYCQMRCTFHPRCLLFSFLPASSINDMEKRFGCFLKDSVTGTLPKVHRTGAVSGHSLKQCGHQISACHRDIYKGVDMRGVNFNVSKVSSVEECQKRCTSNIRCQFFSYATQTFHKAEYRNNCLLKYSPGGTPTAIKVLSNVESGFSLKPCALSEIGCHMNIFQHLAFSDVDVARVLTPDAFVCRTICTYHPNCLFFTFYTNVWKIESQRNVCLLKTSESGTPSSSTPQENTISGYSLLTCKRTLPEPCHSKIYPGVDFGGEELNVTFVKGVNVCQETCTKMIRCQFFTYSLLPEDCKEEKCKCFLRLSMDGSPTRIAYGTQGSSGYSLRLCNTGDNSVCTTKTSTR
Chain of kallikrein (P03952 391-638, chain 2 of 2): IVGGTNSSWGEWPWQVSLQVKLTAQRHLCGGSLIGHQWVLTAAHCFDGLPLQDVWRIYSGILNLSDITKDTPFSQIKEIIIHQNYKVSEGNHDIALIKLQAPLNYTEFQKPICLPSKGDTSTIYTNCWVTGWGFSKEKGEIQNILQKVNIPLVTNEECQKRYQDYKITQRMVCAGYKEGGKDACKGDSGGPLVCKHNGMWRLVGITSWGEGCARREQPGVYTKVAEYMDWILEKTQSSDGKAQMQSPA

Sequence “CGGGGAGAGGTTGGTGTGGTTGGCAATGGCTAGAGTAGTGACGTTTTCGCGGTGAGGTCC” came in with a binding signal with kallikrein of less than 0.5 % bound. Take “TAGAATACTCAAGCTTCGACGNNNNNNNNNNNNNNNNNNNNAGTTTGGATCCCCGGGTAC [Round 6 pool prepared with thymidine]”: the dissociation constant Kd (as a rule, the equilibrium constant for the complex coming apart) in data set [1] was greater than 10 µM.

With “TAGAATACTCAAGCTTCGACGNNNNNNNNNNNNNNNNNNNNAGTTTGGATCCCCGGGTAC [pentynyl-dU Round 6 pool]”, the equilibrium dissociation constant (Kd) in data set [1] (5-(1-pentynyl)-dU replacing T in amplified region) was determined as 0.4 µM. On to “TAGAATACTCAAGCTTCGACGNNNNNNNNNNNNNNNNNNNNAGTTTGGATCCCCGGGTAC [unselected pentynyl-dU pool]”, for which, in data set [1] (5-(1-pentynyl)-dU replacing T in amplified region, unit micro sign lost in print), the Kd was greater than 10 µM.
